These results are taken from US20220064276A1 (SCHOLAR ROCK, published 2022).

B1: SR-AB40 (antibody, IgG1, V domains shown)
VH: QVQLVESGGGVVQPGRSLRLSCAASGFTFRSYVMHWVRQAPGKGLEWVAVISHEGSLKYYADSVKGRFTISRDNSKNTLYLQMNSLRAEDTAVYYCARPRIAARRGGFGYWGQGTLVTVSS
VL: NFMLTQPHSVSESPGKTVTISCTRSSGNIDNNYVQWYQQRPGSSPTTVIYEDNQRPSGVPDRFSGSIDSSSNSASLTISGLKTEDEADYYCQSYDYSNQGVVFGGGTKLTVL
notes: Cycle 3, lineage SR-AB23
B2: SR-AB63 (antibody, IgG1, V domains shown)
VH: QLQLQESGPGLVKPSETLSLTCTVSGGSIRSSSYYWGWIRQPPGKGLEWIGSISYSATTYYNPSLKSRVTISVDTSKNQFSLKLSSVTAADTAVYYCAGDPSYDSIAGMQVWGQGTTVTVSS
VL: DIQLTQSPSSLSASVGDRVTITCRASQSISSYLNWYQQKPGKAPKLLIYAASNLQSGVPSRFSGSGSGTDFTLTISSLQPEDFATYYCQQSFDWPLTFGGGTKVEIK
notes: Cycle 3, lineage SR-AB26
B3: SR-AB31 (antibody, IgG1, V domains shown)
VH: B1 VH with R98V
VL: B1 VL with Y96F, S97N
notes: Cycle 3, lineage SR-AB22
B4: SR-AB45 (antibody, IgG1, V domains shown)
VH: B1 VH
VL: B1 VL with N28A, N31D, N53F, Y96D, S97D, N98L
notes: Cycle 3, lineage SR-AB23
B5: SR-AB34 (antibody, IgG1, V domains shown)
VH: B1 VH with R98V
VL: B1 VL with S97D, N98A
notes: Cycle 3, lineage SR-AB22
B6: SR-AB39 (antibody, IgG1, V domains shown)
VH: B1 VH with R98V
VL: B1 VL with N28L, N31D, N53A, Y96H, S97D, N98E
notes: Cycle 3, lineage SR-AB22
B7: SR-AB41 (antibody, IgG1, V domains shown)
VH: B1 VH
VL: B1 VL with S97D, G100A
notes: Cycle 3, lineage SR-AB23
B8: SR-AB44 (antibody, IgG1, V domains shown)
VH: B1 VH
VL: B1 VL with S26H, N31D, Q54V, Y96S, S97D, G100L
notes: Cycle 3, lineage SR-AB23
B9: SR-AB37 (antibody, IgG1, V domains shown)
VH: B1 VH with R98V
VL: B1 VL with N28L, N31D, Y96S, S97D, N98L, G100R
notes: Cycle 3, lineage SR-AB22
B10: SR-AB38 (antibody, IgG1, V domains shown)
VH: B1 VH with R98V
VL: B1 VL with N28S, N53F, Q54I, Y96D, S97D, N98L
notes: Cycle 3, lineage SR-AB22
B11: SR-AB42 (antibody, IgG1, V domains shown)
VH: B1 VH
VL: B1 VL with S97D, N98T
notes: Cycle 3, lineage SR-AB23

Changes are numbered by the printed parent chain. Where “and” joins values, the source holds several entries; their conditions need not be identical. Equal entries are not always repeated.

T2 sequence (P01137 30-390): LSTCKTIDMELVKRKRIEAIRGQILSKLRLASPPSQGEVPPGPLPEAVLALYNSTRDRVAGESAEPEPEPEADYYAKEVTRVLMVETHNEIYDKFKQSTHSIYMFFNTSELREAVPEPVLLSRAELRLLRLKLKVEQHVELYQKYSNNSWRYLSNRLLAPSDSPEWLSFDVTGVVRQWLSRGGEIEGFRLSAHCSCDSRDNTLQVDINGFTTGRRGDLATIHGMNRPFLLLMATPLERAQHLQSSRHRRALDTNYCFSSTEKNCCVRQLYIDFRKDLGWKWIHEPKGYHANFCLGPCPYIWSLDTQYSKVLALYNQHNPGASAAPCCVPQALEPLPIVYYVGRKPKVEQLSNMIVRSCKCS

The target of the first assay is T1, human GARP-proTGFβ1 complex (human, UniProt Q14392 18-627; P01137 30-390, limits assumed).
T1 construct: Exemplary entries; also called Hu GARP-proTGFβ1; huGARP proTGFb1
T1 sequence (Q14392 18-627 limits assumed, chain 1 of 2): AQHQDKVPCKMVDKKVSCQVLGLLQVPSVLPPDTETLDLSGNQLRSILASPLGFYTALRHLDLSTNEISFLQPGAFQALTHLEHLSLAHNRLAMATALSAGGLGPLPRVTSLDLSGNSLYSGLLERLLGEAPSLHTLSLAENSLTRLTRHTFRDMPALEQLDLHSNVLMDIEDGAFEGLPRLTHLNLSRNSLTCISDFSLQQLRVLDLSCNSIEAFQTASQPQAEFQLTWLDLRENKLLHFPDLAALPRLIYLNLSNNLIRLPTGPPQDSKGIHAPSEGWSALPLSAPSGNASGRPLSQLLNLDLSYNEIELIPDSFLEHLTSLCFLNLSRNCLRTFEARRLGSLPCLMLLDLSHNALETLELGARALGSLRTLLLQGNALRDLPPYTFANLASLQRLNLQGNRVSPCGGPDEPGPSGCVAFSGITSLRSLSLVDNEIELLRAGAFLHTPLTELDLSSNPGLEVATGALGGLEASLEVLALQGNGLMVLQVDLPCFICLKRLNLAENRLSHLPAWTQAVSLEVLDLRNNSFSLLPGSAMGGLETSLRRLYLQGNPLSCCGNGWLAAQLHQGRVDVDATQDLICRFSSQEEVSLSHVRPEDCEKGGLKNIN
T1 sequence (P01137 30-390 limits assumed, chain 2 of 2): as the sequence (P01137 30-390) above
Briefly: Octet (bio-layer interferometry), response at 200 nM antigen; 0.1 nm cutoff designates meaningful binding. On the procedure: This experiment was performed at 200, 100, 50, and 25 nM human GARP proTGFb1 and human LTBP1 proTGFbl. […] Surface plasmon resonance (SPR)-based assays
As to B1, the binding result is reported as “no binding (tested: 200 nM)”.

The next assay has as its target T2, LTBP-proTGFβ1: transfected human proTGFβ1 presented by endogenous LTBP1/3 of LN229 cells (human). The assay is described as follows: cell-based or functional assay.
As to B2, the “IC50, endogenous hLTBP assay (CAGA12 luciferase)” value (shortened to “IC50, endogenous hLTBP assay”) stood at 1780 pM.

The target in the next assay is T3, mouse LTBP1-proTGFβ1 complex (mouse, UniProt Q8CG19 339-1712; P04202 30-390). The assay is described as follows: cell-based or functional assay.
T3 sequence (Q8CG19 339-1712 limits assumed, chain 1 of 2): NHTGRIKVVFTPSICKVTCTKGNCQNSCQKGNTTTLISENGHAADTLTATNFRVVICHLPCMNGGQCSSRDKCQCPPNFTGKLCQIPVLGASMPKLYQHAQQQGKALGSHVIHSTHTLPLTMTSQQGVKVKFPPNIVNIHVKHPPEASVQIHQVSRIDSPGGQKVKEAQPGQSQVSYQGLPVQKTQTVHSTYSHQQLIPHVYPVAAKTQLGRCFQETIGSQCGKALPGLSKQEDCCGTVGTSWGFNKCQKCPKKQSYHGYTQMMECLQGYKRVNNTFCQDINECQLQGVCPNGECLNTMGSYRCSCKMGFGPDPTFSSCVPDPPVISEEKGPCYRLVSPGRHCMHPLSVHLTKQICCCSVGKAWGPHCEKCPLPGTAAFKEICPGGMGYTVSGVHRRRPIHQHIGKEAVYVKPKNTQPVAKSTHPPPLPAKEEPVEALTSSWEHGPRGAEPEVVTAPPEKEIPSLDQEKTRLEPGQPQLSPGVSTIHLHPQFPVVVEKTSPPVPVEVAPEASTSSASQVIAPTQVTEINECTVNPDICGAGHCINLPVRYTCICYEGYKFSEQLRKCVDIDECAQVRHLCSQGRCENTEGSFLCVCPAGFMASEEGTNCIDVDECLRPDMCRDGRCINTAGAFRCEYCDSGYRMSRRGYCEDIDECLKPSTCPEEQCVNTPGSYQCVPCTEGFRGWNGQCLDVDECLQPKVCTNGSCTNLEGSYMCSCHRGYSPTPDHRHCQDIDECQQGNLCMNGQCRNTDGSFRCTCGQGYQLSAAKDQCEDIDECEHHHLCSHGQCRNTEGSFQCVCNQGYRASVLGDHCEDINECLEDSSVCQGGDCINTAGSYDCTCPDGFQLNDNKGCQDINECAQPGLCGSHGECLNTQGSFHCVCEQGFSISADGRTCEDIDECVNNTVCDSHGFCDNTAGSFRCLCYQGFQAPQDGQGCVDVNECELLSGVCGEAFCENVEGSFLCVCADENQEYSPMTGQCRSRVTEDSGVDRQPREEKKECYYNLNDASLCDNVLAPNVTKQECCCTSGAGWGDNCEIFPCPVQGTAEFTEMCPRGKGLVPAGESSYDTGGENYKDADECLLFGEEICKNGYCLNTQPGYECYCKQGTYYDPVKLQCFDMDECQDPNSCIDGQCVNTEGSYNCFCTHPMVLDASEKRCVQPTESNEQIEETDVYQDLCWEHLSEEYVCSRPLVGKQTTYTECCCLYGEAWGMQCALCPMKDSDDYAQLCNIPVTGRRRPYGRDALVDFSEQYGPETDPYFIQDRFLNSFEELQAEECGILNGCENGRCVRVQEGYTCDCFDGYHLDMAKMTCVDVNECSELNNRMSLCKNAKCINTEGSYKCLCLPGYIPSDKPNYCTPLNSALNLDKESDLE
T3 sequence (P04202 30-390 limits assumed, chain 2 of 2): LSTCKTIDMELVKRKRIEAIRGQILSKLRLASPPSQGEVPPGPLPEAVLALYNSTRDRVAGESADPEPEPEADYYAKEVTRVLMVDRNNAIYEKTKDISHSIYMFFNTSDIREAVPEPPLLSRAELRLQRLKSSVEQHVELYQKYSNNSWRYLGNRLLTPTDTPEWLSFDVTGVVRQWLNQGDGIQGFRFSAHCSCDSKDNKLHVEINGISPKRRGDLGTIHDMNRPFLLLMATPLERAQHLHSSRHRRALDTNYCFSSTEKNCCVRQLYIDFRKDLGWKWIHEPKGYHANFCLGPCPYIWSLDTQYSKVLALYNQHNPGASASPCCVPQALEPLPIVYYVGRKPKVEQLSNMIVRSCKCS
B2: the “IC50, mLTBP1 assay (CAGA12 luciferase)” value was found to be 208 pM.

A further assay concerns the target T1, human GARP-proTGFβ1 complex. The assay is described as follows: Octet BLI, Table 10 (repeats Table 9). On the procedure:
(§1) Binding affinities of the optimized antibodies were measured by Octet against human LTBP1-proTGFβ1, human LTBP3-proTGFβ1, mouse LTBP1-proTGFβ1, mouse LTBP3-proTGFβ1, and GARP-proTGFβ1 complexes, essentially as described in Example 6. […] The antigens were allowed to associate for 3 minutes followed by a 5-minute dissociation. Kinetics buffer (ForteBio®) was used throughout the experiment, and KD was determined using a 1:1 fitting model for each antibody antigen pair.
Table 9 presents the binding profile and affinity data for the indicated LTBP complex-specific antibodies (IgG1-agly) identified from the light chain optimization cycle 3, determined by Octet.
(In general: BLI is a label-free optical method that tracks binding on a fibre tip over time.)
A word on the Kd: it is the equilibrium constant for the complex coming apart. A lower Kd goes with a tighter complex. B3: binding was characterised by a dissociation constant (Kd) of 11200 pM.
For the molecule B4, binding was characterised by a dissociation constant (Kd) of 195000 pM.
The same measure, in the same setting: under B5 stands 73500 pM; under B6, 389000 pM.
On the same count and under the same terms, the value for B7 was 764000 pM; that for B8 was 212000 pM; that for B9 was 36100 pM.
Still for that read-out and setting: under B10 stands 8420 pM.

A further assay addresses T2, LTBP-proTGFβ1: transfected human …. Briefly: cell-based or functional assay. This is another data set of the same source.
With B3, the “IC50, endogenous hLTBP assay” value is 1260 pM and 1560 pM.
Same read-out and setting: the value for B5 was 909 pM; that for B6 was 1010 pM; that for B9 was 1930 pM.

In another assay the target is T3, mouse LTBP1-proTGFβ1 complex. The assay is described as follows: cell-based or functional assay. This is another data set of the same source.
As for B3, the “IC50, mLTBP1 assay (CAGA12 luciferase)” value was found to be 431 pM.
In the case of B5, the “IC50, mLTBP1 assay (CAGA12 luciferase)” value was 423 pM.
On the same count and under the same terms, the value for B6 was 479 pM.
On the same count and under the same terms, the value for B9 was 543 pM.

The next assay concerns the target T4, human LTBP1-proTGFβ1 complex (human, UniProt Q14766 347-1721; P01137 30-390).
T4 construct: Large latent complex: one presenting molecule disulfide-linked to a proTGFβ1 dimer; also called Hu LTBP1-proTGFβ1; huLTBP1 proTGFβ1
Briefly: Octet BLI, IgG captured. On the procedure:
as §1
In general, koff refers to the rate constant with which the complex falls apart. A lower koff goes with slow dissociation. A word on the kon: it is the rate constant with which the complex forms. Higher therefore signals fast association. On to B2, for which the Kd turned out to be 611 pM, the dissociation rate constant (koff) was 7.24e-05 s⁻¹ and the on-rate constant (kon) was 118000 M⁻¹ s⁻¹.
On the same counts, the results for B3 are 412 pM, 9.89e-05 s⁻¹ and 240000 M⁻¹ s⁻¹.
For B4 the same measures were 193 pM, 6e-05 s⁻¹ and 310000 M⁻¹ s⁻¹.
For B5 the same measures were 231 pM, 6e-05 s⁻¹ and 259000 M⁻¹ s⁻¹.
Regarding B11, the dissociation constant Kd came to 389 pM, the off-rate constant (koff) came to 6e-05 s⁻¹ and the association rate constant (kon) was determined as 154000 M⁻¹ s⁻¹.
For B6, the Kd is 205 pM, the koff was 6e-05 s⁻¹ and the kon was found to be 292000 M⁻¹ s⁻¹.
As for B7, the affinity, expressed as Kd, was 296 pM; the koff came to 6e-05 s⁻¹; the kon worked out at 203000 M⁻¹ s⁻¹.
On the same counts, the results for B8 are 214 pM, 6e-05 s⁻¹ and 280000 M⁻¹ s⁻¹.
On the same counts, the results for B9 are 328 pM, 0.000118 s⁻¹ and 360000 M⁻¹ s⁻¹.
On the same counts, the results for B10 are 357 pM, 0.000117 s⁻¹ and 327000 M⁻¹ s⁻¹.
B1: the Kd came to 401 pM, the koff is 6e-05 s⁻¹ and the kon stood at 150000 M⁻¹ s⁻¹.

Another assay concerns the target T3, mouse LTBP1-proTGFβ1 complex. Briefly: Octet BLI, IgG captured. On the procedure: as §1
As to B2, the Kd stood at 1090 pM.
Same read-out and setting: the value for B3 was 682 pM; that for B4 was 193 pM; that for B5 was 417 pM.
As for B11, the Kd is 359 pM.
On the same count and under the same terms, the value for B6 was 232 pM; that for B7 was 404 pM.
The molecule B8 yielded a Kd of 210 pM.
On the same count and under the same terms, under B9 stands 384 pM; under B10, 391 pM; under B1, 1080 pM.

The next assay has as its target T5, mouse LTBP3-proTGFβ1 complex (mouse, UniProt Q61810 41-1245; P04202 30-390, limits assumed).
T5 construct: Exemplary entries; also called Mo LTBP3-proTGFβ1; Murine LTBP3 proTGFb1
Briefly: Octet BLI, IgG captured. On the procedure:
as §1
In turn, B2 displayed a Kd of 2000 pM.
The same measure, in the same setting: under B3 stands 589 pM.
On the same count and under the same terms, under B4 stands 269 pM; under B5, 450 pM; under B11, 1050 pM.
The same measure, in the same setting: under B6 stands 342 pM; under B7, 717 pM; under B8, 407 pM.
As to B9, the Kd amounted to 325 pM.
In turn, B10 gave a dissociation constant (Kd) of 331 pM.
On the same count and under the same terms, under B1 stands 1160 pM.

In another assay the target is T6, human LTBP3-proTGFβ1 complex (human, UniProt Q9NS15 44-1303; P01137 30-390, limits assumed).
T6 construct: Exemplary entries; also called Hu LTBP3-proTGFβ1; huLTBP3 proTGFb1
T6 sequence (Q9NS15 44-1303 limits assumed, chain 1 of 2): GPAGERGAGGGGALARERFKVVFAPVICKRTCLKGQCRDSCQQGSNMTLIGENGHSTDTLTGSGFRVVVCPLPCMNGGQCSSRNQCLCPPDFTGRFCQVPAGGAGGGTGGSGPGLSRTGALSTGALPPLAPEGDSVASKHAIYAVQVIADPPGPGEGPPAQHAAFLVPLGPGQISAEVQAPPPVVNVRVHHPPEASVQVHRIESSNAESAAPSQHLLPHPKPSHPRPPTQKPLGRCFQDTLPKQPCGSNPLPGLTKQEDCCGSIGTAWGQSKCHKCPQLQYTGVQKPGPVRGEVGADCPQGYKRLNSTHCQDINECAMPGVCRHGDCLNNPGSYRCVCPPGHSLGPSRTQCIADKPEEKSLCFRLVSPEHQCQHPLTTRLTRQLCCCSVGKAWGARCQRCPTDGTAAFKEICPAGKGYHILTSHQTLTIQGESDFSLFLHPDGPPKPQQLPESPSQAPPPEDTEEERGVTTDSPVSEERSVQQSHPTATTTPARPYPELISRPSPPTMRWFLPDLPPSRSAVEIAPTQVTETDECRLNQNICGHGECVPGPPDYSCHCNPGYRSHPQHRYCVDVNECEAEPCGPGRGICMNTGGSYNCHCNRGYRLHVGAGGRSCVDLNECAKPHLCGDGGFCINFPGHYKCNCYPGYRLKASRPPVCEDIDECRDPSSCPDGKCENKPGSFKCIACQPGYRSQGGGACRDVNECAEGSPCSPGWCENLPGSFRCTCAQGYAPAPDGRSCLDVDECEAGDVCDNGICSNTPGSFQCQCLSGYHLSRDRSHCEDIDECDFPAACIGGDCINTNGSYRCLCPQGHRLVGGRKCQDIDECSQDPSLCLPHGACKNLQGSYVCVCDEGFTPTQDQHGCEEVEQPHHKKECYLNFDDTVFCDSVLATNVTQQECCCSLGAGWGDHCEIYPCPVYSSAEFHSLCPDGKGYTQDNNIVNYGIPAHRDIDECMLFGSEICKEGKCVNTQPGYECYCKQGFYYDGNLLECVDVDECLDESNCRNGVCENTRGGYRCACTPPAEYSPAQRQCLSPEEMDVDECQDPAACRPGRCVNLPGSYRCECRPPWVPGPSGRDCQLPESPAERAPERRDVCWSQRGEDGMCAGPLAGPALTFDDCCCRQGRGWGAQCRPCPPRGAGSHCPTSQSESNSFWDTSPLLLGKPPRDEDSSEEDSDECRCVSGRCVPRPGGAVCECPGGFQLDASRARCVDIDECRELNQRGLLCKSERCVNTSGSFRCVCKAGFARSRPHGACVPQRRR
T6 sequence (P01137 30-390 limits assumed, chain 2 of 2): as the sequence (P01137 30-390) above
The assay is described as follows: Octet BLI, IgG captured. On the procedure:
as §1
Turning to B2, the affinity, expressed as Kd, was 494 pM; the koff was 7.84e-05 s⁻¹; the kon is 159000 M⁻¹ s⁻¹.
In the case of B3, the dissociation constant (Kd) stood at 221 pM, the koff was 6.81e-05 s⁻¹ and the on-rate (kon) turned out to be 308000 M⁻¹ s⁻¹.
The molecule B4 yielded a Kd of 122 pM, a koff of 6e-05 s⁻¹ and an on-rate (kon) of 491000 M⁻¹ s⁻¹.
On to B5, for which binding was characterised by a dissociation constant (Kd) of 179 pM, the off-rate constant (koff) was determined as 6.68e-05 s⁻¹ and the on-rate (kon) came to 372000 M⁻¹ s⁻¹.
For B11 the same measures were 259 pM, 6e-05 s⁻¹ and 232000 M⁻¹ s⁻¹.
With B6, the affinity, expressed as Kd, was 136 pM; the koff came out at 6e-05 s⁻¹; the on-rate constant (kon) came to 441000 M⁻¹ s⁻¹.
On the same counts, the results for B7 are 235 pM, 6e-05 s⁻¹ and 255000 M⁻¹ s⁻¹.
For B8 the same measures were 146 pM, 6e-05 s⁻¹ and 410000 M⁻¹ s⁻¹.
For B9, the equilibrium dissociation constant (Kd) was 139 pM, the off-rate (koff) came to 7.58e-05 s⁻¹ and the kon came to 545000 M⁻¹ s⁻¹.
On the same counts, the results for B10 are 145 pM, 7.26e-05 s⁻¹ and 502000 M⁻¹ s⁻¹.
On the same counts, the results for B1 are 333 pM, 6.07e-05 s⁻¹ and 182000 M⁻¹ s⁻¹.

A further assay has as its target T1, human GARP-proTGFβ1 complex. The assay is described as follows: Octet BLI, IgG captured. On the procedure: as §1
Molecule B3 yielded a dissociation constant Kd of 11200 pM.
The same measure, in the same setting: the value for B4 was 195000 pM; that for B5 was 73500 pM; that for B6 was 389000 pM.
Turning to B7, the Kd came out at 764000 pM.
Still for that read-out and setting: under B8 stands 212000 pM.
Still for that read-out and setting: under B9 stands 36100 pM.
Regarding B10, binding was characterised by a dissociation constant (Kd) of 8420 pM.

A further assay concerns the target T2, LTBP-proTGFβ1: transfected human …. The assay is described as follows: cell-based or functional assay. The source holds these as a separate data set.
Consider B4, for which the “IC50, endogenous hLTBP assay” value was 2250 pM.
Still for that read-out and setting: the value for B11 was 1430 pM; that for B7 was 1540 pM.
The same measure, in the same setting: under B8 stands 1520 pM; under B1, 2100 pM.

The target of a further assay is T3, mouse LTBP1-proTGFβ1 complex. Briefly: cell-based or functional assay. The source holds these as a separate data set.
Consider B4, for which the “IC50, mLTBP1 assay (CAGA12 luciferase)” value turned out to be 264 pM.
The same measure, in the same setting: under B11 stands 271 pM.
Same read-out and setting: under B7 stands 409 pM.
As for B8, the “IC50, mLTBP1 assay (CAGA12 luciferase)” value was found to be 300 pM.
Same read-out and setting: under B1 stands 333 pM.
